According to patent US20090081211A1 (published 2009):

Biological target: human C3b (UniProt P01024 23-667; P01024 749-1663)
Assay: SPR

Sequence of human C3b (P01024 other isoform, or with tags, fused parts or gaps, chain 1 of 2): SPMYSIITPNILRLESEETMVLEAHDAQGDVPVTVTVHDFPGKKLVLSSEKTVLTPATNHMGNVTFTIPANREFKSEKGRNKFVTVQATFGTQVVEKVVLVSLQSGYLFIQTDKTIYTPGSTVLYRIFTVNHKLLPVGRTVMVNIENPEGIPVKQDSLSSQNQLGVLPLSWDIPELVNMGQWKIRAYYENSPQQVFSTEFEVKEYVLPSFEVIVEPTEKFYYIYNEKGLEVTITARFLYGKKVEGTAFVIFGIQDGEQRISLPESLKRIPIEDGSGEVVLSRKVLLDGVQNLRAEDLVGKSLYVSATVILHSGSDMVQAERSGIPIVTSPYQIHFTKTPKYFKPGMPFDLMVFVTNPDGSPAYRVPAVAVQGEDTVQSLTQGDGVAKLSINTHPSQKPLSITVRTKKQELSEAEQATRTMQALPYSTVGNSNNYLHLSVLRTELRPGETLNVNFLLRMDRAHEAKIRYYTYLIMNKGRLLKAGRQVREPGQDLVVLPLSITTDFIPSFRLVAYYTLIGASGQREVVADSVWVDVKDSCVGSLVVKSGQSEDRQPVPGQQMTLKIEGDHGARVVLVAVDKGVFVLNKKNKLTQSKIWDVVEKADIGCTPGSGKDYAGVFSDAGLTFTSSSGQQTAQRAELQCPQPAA
Sequence of human C3b (P01024 other isoform, or with tags, fused parts or gaps, chain 2 of 2): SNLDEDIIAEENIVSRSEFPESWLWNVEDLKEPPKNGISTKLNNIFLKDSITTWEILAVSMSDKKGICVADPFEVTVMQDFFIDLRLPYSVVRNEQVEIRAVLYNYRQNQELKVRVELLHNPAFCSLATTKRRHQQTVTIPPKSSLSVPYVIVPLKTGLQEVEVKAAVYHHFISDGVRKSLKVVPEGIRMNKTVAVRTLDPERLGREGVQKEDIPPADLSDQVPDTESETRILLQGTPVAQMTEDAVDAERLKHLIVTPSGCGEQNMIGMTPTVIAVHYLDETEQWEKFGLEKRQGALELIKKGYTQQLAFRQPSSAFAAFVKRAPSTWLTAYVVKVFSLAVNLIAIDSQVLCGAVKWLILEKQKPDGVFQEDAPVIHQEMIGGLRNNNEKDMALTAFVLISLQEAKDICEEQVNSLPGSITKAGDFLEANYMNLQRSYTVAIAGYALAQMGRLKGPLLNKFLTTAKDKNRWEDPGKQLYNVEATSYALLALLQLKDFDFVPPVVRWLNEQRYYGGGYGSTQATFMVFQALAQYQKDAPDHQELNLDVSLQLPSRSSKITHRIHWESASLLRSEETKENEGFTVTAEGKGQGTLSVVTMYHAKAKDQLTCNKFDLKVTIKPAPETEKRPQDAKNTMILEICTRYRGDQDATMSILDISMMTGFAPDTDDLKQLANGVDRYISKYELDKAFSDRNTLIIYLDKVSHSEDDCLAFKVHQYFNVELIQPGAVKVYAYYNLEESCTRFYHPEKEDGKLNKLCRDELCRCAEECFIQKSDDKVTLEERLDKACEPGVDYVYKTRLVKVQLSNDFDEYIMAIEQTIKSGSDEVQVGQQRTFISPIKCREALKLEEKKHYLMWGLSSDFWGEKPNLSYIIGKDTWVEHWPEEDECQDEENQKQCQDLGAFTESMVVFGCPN

Kd: 6.47 nM
B1: antibody YW144.2.43.S77 Fab fragment (Fab, V domains shown)
VH: EVQLVESGGGLVQPGGSLRLSCAASGFSFTSSSVSWVRQAPGKGLEWVGLIYPYNGFNYYADSVKGRFTISADTSKNTAYLQMNSLRAEDTAVYYCARNALYGSGGYYAMDYWGQGTLVTVSS
VL: DIQMTQSPSSLSASVGDRVTITCRASQDVSTAVAWYQQKPGKAPKLLIYSASFLYSGVPSRFSGSGSGTDFTLTISSLQPEDFATYYCQQSYATLPTFEQGTKVEIK
